Key:
Assay in all cases: ITC
Settings in all cases: ITC: 10 mM HEPES, 150 mM NaCl, pH 7.5, 25 C, 100 uM DNA into 10 uM CsoR tetramer; EMSA: same buffer, room temperature, 30 min, 6% PAGE in TBE; SEC: same buffer
[1] = biological target: CsoRSl R129A (Streptomyces lividans 1326) (UniProt D6EK73)
[2] = biological target: CsoRSl R132A (Streptomyces lividans 1326) (UniProt D6EK73)
[3] = biological target: CsoRSl R54A (Streptomyces lividans 1326) (UniProt D6EK73)

CGGACAAATACCCCTGGTGGGTATATATGG (double strand) [csoR-EXT]
Kd [1]: 134 nM | Kd [2]: 309 nM | Kd [3]: 2060 nM
